Read-outs that look alike come from different tables or passages of the source.

Experiment [1] deals with Fucα1,6GlcNAc-CD52 (17) (human) (UniProt P31358).
Experiment [2] shares this target. The source holds these as a separate data set.

“Endo-F2 (Endoglycosidase-F2), wild type (enzyme)”: the transglycosylation with sialoglycan oxazoline (12), yield of 18 in experiment [1] was found to be 25%.

As to “Endo-F3 (Endoglycosidase-F3), wild type (enzyme)”, in experiment [1], the transglycosylation with sialoglycan oxazoline (12), isolated yield of 18 was determined as 55%. In experiment [2], Endo-F3 D126A mutant (enzyme) yielded a transglycosylation with sialoglycan oxazoline (12), yield of 18 greater than 90%. The substance Endo-F3 D126Q mutant (enzyme) returned a transglycosylation with sialoglycan oxazoline (12), yield of 18 in experiment [2] greater than 90%.

The record behind these values is US20120226024A1.
